Assay results from the supplement of paper PMC7125110.
± gives the standard error. Variants at the floor of the assay were thinned out.

B1: glmS ribozyme (parent)
chain: AUAAAAGCGCCAGAACUACAGAAAUGUAGUUGACGAGGAGGAGGUUUAUCGAAUUUUCGGCGGAUGCCUCCAAA

Tests used:
Details in all cases: with glucosamine-6-phosphate
glucosamine-6-phosphate [1] = variants of: B1; assay: self-cleavage kobs at 640 uM GlcN6P; higher = faster cleavage; RNA array
Method in brief: (§1)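 Tiles of sequenced MiSeq chips were imaged over ~14 h at 37 °C. On them, barcoded ribozyme variants had been transcribed in situ by E. coli RNA polymerase and were tracked via a hybridised Cy3 probe while glucosamine-6-phosphate (40 μM to 10 mM) in HEPES/KCl/Mg(OAc)2 buffer flowed in. Per-tile medians, normalised to baseline and to non-cleaving reference variants, were fit to one- or two-exponential decays for kobs, and weighted Michaelis–Menten fits gave kcat and KM.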

glucosamine-6-phosphate [2] = variants of: B1; assay: self-cleavage kobs at 2500 uM GlcN6P; higher = faster cleavage; RNA array
Method in brief: as §1

glucosamine-6-phosphate [3] = variants of: B1; assay: self-cleavage kobs at 10000 uM GlcN6P; higher = faster cleavage; RNA array
Method in brief: as §1

Variant	self-cleavage kobs at 640 uM GlcN6P (glucosamine-6-phosphate [1]) [s⁻¹]	self-cleavage kobs at 2500 uM GlcN6P (glucosamine-6-phosphate [2]) [s⁻¹]	self-cleavage kobs at 10000 uM GlcN6P (glucosamine-6-phosphate [3]) [s⁻¹]
C34G A36G C71U	< 1e-05	–	–
C10A U47A C70G	0.000288 ± 0.00012	–	–
C34A U46G G62C	< 1e-05	–	–
A15C G44C U56C	< 1e-05	–	–
C8G G35A U55C G60U C67A	< 1e-05	< 1e-05	–
U46G C50U C67U C68A U69G	0.00024 ± 9.9e-05	–	4.36e-05 ± 1.5e-05
G32A G41A C50U	< 1e-05	< 1e-05	–
U49G C50U G66U C70U	8.76e-05 ± 3.9e-05	–	–
U54A C67U C68A	6.98e-05 ± 2.2e-05	–	–
G21U U69G	6.25e-05 ± 1.4e-05	9.89e-05 ± 2e-05	–
U30C U31A U45A	0.00111 ± 0.00052	0.000661 ± 0.0003	–
A33U G44U U46G	< 1e-05	< 1e-05	–
G13U G66C U69G	7.62e-05 ± 2.3e-05	–	–
A6U G9C A12C U55A	< 1e-05	< 1e-05	–
A42U G44C C68U	< 1e-05	< 1e-05	–
A33G A36G G38A	< 1e-05	–	–
U30A G37C A53U	< 1e-05	–	< 1e-05
G13C A39C A42U	< 1e-05	–	–
G35C A36U A39G	< 1e-05	–	–
C11U G38C C50U A52C	< 1e-05	–	–
G32U G62A C67A	< 1e-05	–	–
A6G C11G G13C C61G	< 1e-05	< 1e-05	–
C10A G35C C70U	< 1e-05	–	–

Variant	self-cleavage kobs at 640 uM GlcN6P (glucosamine-6-phosphate [1]) [s⁻¹]	self-cleavage kobs at 2500 uM GlcN6P (glucosamine-6-phosphate [2]) [s⁻¹]	self-cleavage kobs at 10000 uM GlcN6P (glucosamine-6-phosphate [3]) [s⁻¹]
C10A C16A A36C A42G U46A U54C U56G G63U	< 1e-05	–	< 1e-05
C8G C11U G32U G59U	< 1e-05	< 1e-05	–
A36G A39U G43A U45G G59A	< 1e-05	–	–
C34G G40U U46A	< 1e-05	–	–
A36C A42U G44C A52U	< 1e-05	–	–
G9A C50U	< 1e-05	< 1e-05	< 1e-05
C8G C16U U57A	< 1e-05	< 1e-05	–
G13U G60U C68A C71A	< 1e-05	< 1e-05	–
A14C G41A G62U C70G	< 1e-05	< 1e-05	–
C34A G44U C50A	< 1e-05	–	–
A36C A39C A52U	< 1e-05	–	–
G7U C10U A52U	< 1e-05	–	–
A15G G35A G44U C50G G59C G60C	< 1e-05	–	–
A6G U46C U47A	< 1e-05	–	–
G9A C10U C68A	< 1e-05	–	–
A12C A20C	0.00491 ± 0.0012	0.0118 ± 0.0035	–
G32A A48C U55G G66A	< 1e-05	–	–
U49C C50U G51A	< 1e-05	< 1e-05	–
C8G A12U A36C	< 1e-05	–	–
A39C A52C C71A	< 1e-05	< 1e-05	–
G32C G37U G38C	< 1e-05	< 1e-05	–
A14U A42C A64C	< 1e-05	< 1e-05	< 1e-05
A15G A33G A53U	< 1e-05	–	–

Variant	self-cleavage kobs at 640 uM GlcN6P (glucosamine-6-phosphate [1]) [s⁻¹]	self-cleavage kobs at 2500 uM GlcN6P (glucosamine-6-phosphate [2]) [s⁻¹]	self-cleavage kobs at 10000 uM GlcN6P (glucosamine-6-phosphate [3]) [s⁻¹]
A14G C58G C71A	0.000191 ± 5.2e-05	9.06e-05 ± 1.5e-05	–
G7A G9U C68U	< 1e-05	–	–
A14G A15C G29A U47C C67A C71A	< 1e-05	–	–
C8G C50G A52U	< 1e-05	–	–
U31C U46C	7.34e-05 ± 2.3e-05	0.000204 ± 3.7e-05	0.000295 ± 8e-05
G13U U30G A48C	< 1e-05	–	< 1e-05
C10A U46C U54G	< 1e-05	–	–
A42C G44U	< 1e-05	–	< 1e-05
U2C G35U C68U	< 1e-05	–	–
A6G G32C G51C	< 1e-05	–	–
G35C G43U G60C	< 1e-05	–	< 1e-05
U57G G59U	< 1e-05	< 1e-05	< 1e-05
G37A A42G C71G	8.96e-05 ± 2.4e-05	5.5e-05 ± 1.6e-05	8.16e-05 ± 2.3e-05
A33U U49A G51C	< 1e-05	–	–
U30A G51C	< 1e-05	–	< 1e-05
A12G C16A A52U U57G	< 1e-05	–	–
C11A A33U A52G C68G	0.000157 ± 6.4e-05	–	–
U47G U49A A52U	< 1e-05	–	–
G7A U56C C68U	< 1e-05	–	< 1e-05
G13U A14G G37A U45A	9.84e-05 ± 2.1e-05	0.000193 ± 3.6e-05	–
U46C G51U A52G U55A C61G	< 1e-05	< 1e-05	–
C11U U30A C34U A36G U69A	0.000685 ± 0.00016	–	–
G51U A52G G59A	< 1e-05	< 1e-05	–

Variant	self-cleavage kobs at 640 uM GlcN6P (glucosamine-6-phosphate [1]) [s⁻¹]	self-cleavage kobs at 2500 uM GlcN6P (glucosamine-6-phosphate [2]) [s⁻¹]	self-cleavage kobs at 10000 uM GlcN6P (glucosamine-6-phosphate [3]) [s⁻¹]
C11U A53G G66A	0.000178 ± 4e-05	–	–
G9C G40A G66U C68G	< 1e-05	–	–
A36U U45A G63U	< 1e-05	< 1e-05	–
G29U U69A C71G	8.16e-05 ± 3.4e-05	–	–
A15G U49A C58A U69A C70U	0.00014 ± 3.9e-05	–	–
C10U A53U C67A C68G	4.13e-05 ± 1.9e-05	–	–
A14G A15U A48U U69C	6.32e-05 ± 2.6e-05	–	7.49e-05 ± 2e-05
A14G G35U A52U	< 1e-05	–	–
A15G G37U C58A C70A	6.04e-05 ± 1.8e-05	–	–
U46G G51U U56G U69G	0.000445 ± 0.00011	–	–
G38A A39U U55G U69G	< 1e-05	–	–
A15U C16A A52U A53C	< 1e-05	< 1e-05	–
C8U C58U G62C A64U	< 1e-05	< 1e-05	–
C10U C16U G32A C50G	0.000327 ± 0.00015	9.98e-05 ± 3.8e-05	–
U30C C34A	< 1e-05	–	< 1e-05
A14G C16G U30C	9.39e-05 ± 1.9e-05	–	–
G9U G29U G44A	< 1e-05	< 1e-05	–
U30C A36C A39U G43A G44U	< 1e-05	–	–
C58G U65C	< 1e-05	< 1e-05	–
C19A G44U	2.94e-05 ± 1.3e-05	0.000114 ± 2.7e-05	–
A42U U47A U49A	< 1e-05	< 1e-05	–
G40U G41U U49G C61G	< 1e-05	< 1e-05	–
A33U U45C C50A	< 1e-05	< 1e-05	–

Variant	self-cleavage kobs at 640 uM GlcN6P (glucosamine-6-phosphate [1]) [s⁻¹]	self-cleavage kobs at 2500 uM GlcN6P (glucosamine-6-phosphate [2]) [s⁻¹]	self-cleavage kobs at 10000 uM GlcN6P (glucosamine-6-phosphate [3]) [s⁻¹]
G13C G40C A42C	< 1e-05	< 1e-05	–
U30G U45A G59C	< 1e-05	< 1e-05	–
A12U G62U	< 1e-05	–	< 1e-05
G13C C16U A36G U69C	< 1e-05	–	–
G38U C50A	< 1e-05	< 1e-05	–
G29C U45A C67A	0.000165 ± 4.8e-05	–	–
U45C U47C	0.000179 ± 5.5e-05	0.000515 ± 0.00013	–
G9C U31G U57A	< 1e-05	–	–
C10G C68G C71U	3.95e-05 ± 1.7e-05	–	–
C11G U45G C71U	< 1e-05	< 1e-05	–
G32C U45G G60A C68G	< 1e-05	< 1e-05	–
C8U C16U C71A	< 1e-05	–	–
A42U C58A C61G	< 1e-05	< 1e-05	–
C8G A15G A33C	< 1e-05	< 1e-05	–
U54G U57A C58G C68A	0.000592 ± 0.00015	–	–
C11A G37A C50U G59A C67U U69G	6.37e-05 ± 2.7e-05	–	–
A6C C16U G40C U47C G60U	< 1e-05	< 1e-05	–
A15C G51A G59C	< 1e-05	< 1e-05	–
C58U G59C C61U C71A	< 1e-05	–	–
C8A C10G A15G C16G C50A G63U	< 1e-05	–	–
U31C G32A A39G	0.000252 ± 4.9e-05	–	0.0014 ± 0.00028
C11U G35C U46A U69G	< 1e-05	< 1e-05	–
U49C U54A G63U	< 1e-05	< 1e-05	–

Variant	self-cleavage kobs at 640 uM GlcN6P (glucosamine-6-phosphate [1]) [s⁻¹]	self-cleavage kobs at 2500 uM GlcN6P (glucosamine-6-phosphate [2]) [s⁻¹]	self-cleavage kobs at 10000 uM GlcN6P (glucosamine-6-phosphate [3]) [s⁻¹]
G13A U49A U69A	0.00011 ± 3.1e-05	–	–
C8U C11A	< 1e-05	–	< 1e-05
C50A U54C U57C C70A	< 1e-05	–	–
C11G A36C G38U C50A U65G	< 1e-05	< 1e-05	< 1e-05
A14C A33C A53U U55A G60U	< 1e-05	< 1e-05	–
G32A C50U C70G	0.000126 ± 4.6e-05	–	–
C16A C68G	0.000279 ± 0.00013	3.3e-05 ± 9.2e-06	–
A33C A48C C71A	< 1e-05	< 1e-05	–
G35U A42U G63C	< 1e-05	–	–
U65G U69C C71U	6.22e-05 ± 1.6e-05	6.97e-05 ± 2.6e-05	–
G32U A64C C71A	< 1e-05	< 1e-05	–
A36C G37A G43U C61G C67A	< 1e-05	< 1e-05	–
C8A A48G A53U	< 1e-05	< 1e-05	–
G13C A48C C68G	< 1e-05	–	–
A36C A39C A53G	< 1e-05	< 1e-05	–
G29A C34U G60U	< 1e-05	–	–
U57A C71U	5.18e-05 ± 2.1e-05	0.000132 ± 3.1e-05	0.000407 ± 0.00015
G44U A64U C68A	< 1e-05	–	–
